Reference: patent EP4011904A1 (Bayer Aktiengesellschaft, dated 2022)
Positions of bridges follow the written chain, without caps; N, C: chain ends.

Key:
Experiment in all cases: cell-based or functional assay
[1] = biological target: T1, recombinant human MASP1 (amino acids 297-699, C-terminal His Tag) (human, UniProt P48740 297-699)
T1 sequence: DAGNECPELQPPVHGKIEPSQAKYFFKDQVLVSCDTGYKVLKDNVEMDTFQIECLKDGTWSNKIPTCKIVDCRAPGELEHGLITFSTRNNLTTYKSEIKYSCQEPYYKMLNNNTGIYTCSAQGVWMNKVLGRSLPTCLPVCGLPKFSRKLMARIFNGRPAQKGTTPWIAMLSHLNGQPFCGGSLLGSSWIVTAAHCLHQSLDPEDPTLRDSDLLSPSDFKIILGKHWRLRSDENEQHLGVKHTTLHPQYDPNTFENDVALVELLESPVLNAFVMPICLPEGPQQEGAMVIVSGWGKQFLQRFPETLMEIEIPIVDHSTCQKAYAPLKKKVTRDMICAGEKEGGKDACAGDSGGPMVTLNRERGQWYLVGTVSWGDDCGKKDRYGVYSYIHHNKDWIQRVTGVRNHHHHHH

[2] = biological target: recombinant human MASP2 (amino acids 297-686, C-terminal His Tag) (human, UniProt O00187 297-686)
recombinant human MASP2 (amino acids 297-686, C-terminal His Tag), sequence (O00187 other isoform, or with tags, fused parts or gaps limits assumed, form in doubt): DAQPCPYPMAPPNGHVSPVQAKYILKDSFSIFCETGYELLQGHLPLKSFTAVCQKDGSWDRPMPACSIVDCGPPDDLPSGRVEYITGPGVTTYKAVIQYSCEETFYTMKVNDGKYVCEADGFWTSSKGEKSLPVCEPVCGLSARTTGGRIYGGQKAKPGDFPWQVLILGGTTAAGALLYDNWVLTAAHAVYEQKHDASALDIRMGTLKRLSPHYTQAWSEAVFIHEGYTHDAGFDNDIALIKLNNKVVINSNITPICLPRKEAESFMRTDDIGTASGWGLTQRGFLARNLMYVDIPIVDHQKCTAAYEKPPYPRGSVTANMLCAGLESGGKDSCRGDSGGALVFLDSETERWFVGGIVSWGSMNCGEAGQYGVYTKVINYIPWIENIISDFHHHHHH

[3] = biological target: T2, recombinant rat MASP1 (amino acids 302-704, C-terminal His Tag) (rat, UniProt Q8CHN8 302-704)
T2 sequence: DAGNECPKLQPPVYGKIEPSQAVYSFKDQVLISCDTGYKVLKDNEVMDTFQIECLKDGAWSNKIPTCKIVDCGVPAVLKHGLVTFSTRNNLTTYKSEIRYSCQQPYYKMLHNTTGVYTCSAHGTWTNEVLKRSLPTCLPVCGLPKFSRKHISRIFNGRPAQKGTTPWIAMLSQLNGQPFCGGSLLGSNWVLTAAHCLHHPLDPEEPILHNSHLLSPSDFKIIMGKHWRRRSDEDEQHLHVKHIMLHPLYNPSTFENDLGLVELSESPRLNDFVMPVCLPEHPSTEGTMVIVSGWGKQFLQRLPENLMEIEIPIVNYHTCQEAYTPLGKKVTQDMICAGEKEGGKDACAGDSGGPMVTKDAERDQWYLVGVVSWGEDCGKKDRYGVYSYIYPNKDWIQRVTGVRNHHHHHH

[4] = biological target: recombinant rat MASP2 (amino acids 296-685, C-terminal His Tag) (rat, UniProt Q9JJS8 296-685)
recombinant rat MASP2 (amino acids 296-685, C-terminal His Tag), sequence (Q9JJS8 other isoform, or with tags, fused parts or gaps limits assumed, form in doubt): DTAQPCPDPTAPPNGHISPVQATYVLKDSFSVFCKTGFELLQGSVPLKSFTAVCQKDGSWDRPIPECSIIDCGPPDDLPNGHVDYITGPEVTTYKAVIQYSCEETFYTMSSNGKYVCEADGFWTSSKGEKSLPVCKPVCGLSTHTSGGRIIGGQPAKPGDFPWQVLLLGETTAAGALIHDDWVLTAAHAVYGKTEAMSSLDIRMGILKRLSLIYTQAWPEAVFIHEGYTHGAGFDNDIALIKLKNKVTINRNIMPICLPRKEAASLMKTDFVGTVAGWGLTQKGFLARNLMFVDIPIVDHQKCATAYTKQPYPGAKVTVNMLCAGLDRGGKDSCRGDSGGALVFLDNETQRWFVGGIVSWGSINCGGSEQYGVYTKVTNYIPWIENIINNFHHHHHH

cyclo(GRCTKSIPPICFPD) (disulfide 3-11; also: TFA salt) [Bicyclic SFTI-1: G**RC+TKSIPPIC+FPD**]
human MASP1 IC50 [1]: > 3000 nM | human MASP2 IC50 [2]: > 3000 nM | rat MASP1 IC50 [3]: 1000 nM | rat MASP2 IC50 [4]: 1000 nM
